{"source": "patent WO2021190480A1", "about": "(dated 2021)", "molecular_target": "T1, His-tagged human TROP-2 protein (TROP-2-His), Sino Biological cat# 10428-H08H (human, UniProt P09758 27-274)", "T1 construct": "also called TROP-2His protein; human TROP-2His antigen; not shown: His tag", "T1 sequence (looked up)": "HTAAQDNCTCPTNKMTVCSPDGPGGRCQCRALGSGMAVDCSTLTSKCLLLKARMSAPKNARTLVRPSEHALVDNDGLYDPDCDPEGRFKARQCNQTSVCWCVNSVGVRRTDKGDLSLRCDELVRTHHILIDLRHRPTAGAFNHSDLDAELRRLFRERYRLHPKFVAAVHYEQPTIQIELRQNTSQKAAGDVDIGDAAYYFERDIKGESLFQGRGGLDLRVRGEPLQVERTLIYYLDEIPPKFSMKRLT", "assay": "indirect ELISA, TROP-2-His coated at 1 ug/ml"}
{"binder": "murine monoclonal antibody M1 (antibody, V domains shown) VH: QVQLQQPGAELVRPGASVKLSCRASGYTFTNYWMNWVKQRPEQGLEWIGRIDPNDSETHYNQKFKDRAILTVDKASNTAYMQLSGLTSEDSAVHYCARSGFGSTYWFFDVWGAGTTVTVSS VL: DIVMTQSHKFMSTSVGDRVSITCKASQDVSTAVAWYQQKPGQSPKLLIYSASYRYTGVPDRFAGSGYGTDFTFTISSVQTEDLTVYHCQQHYSTPLTFGPGTRLELK", "values": [{"measurement": "EC50", "value": 0.56, "unit": "nM"}]}
